Patent US20250122299A1 (published 2025)
Positions count from the first letter of the chain named. Each block holds one binder with its values, some of them ahead of it.

Target: human CD28 (human, UniProt P10747 19-220)
Assay: -; scFv VHVL, 1+1 Fab-scFv-Fc format

B2: H1.1_L1 (antibody, V domains shown)
VH: EVQLLESGGGLVQPGGSLRLSCAASGFTFSSYYMSWVRQAPGKGLEWVSTISGSGDSTYYADSVKGRFTISRDNSKNTLYLQMNSLRAEDTAVYYCAKSGPGLRQVGFDYWGQGTLVTVSS
VL: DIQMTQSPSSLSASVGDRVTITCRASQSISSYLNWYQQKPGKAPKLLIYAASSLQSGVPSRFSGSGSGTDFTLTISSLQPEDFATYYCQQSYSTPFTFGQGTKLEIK
Kd: 600 nM

B3: H1.1_L1.71 (antibody, V domains shown)
VH: B2 VH
VL: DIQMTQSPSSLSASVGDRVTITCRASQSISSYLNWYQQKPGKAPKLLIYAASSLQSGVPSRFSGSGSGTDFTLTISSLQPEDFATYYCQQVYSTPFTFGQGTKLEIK
Kd: 96 nM

Other lines, results leading:

Kd: 180 nM
B1: H1_L1.71 (antibody, V domains shown)
VH: B2 VH with Y33A
VL: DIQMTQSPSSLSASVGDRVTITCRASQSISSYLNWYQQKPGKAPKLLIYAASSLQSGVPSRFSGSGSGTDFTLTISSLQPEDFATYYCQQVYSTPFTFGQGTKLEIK

Kd: 1000 nM
B4: H1L1 (antibody, V domains shown)
VH: B2 VH with Y33A
VL: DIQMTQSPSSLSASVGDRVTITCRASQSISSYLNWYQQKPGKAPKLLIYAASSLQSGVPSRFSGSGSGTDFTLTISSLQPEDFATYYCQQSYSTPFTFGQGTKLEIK
